# Reference: article PMC11530643 (Communications Biology, 2024)
# Ends that are not written are not given here. * marks the point of attachment. MTSL = spin label from S-(1-oxyl-2,2,5,5-tetramethyl-2,5-dihydro-1H-pyrrol-3-yl)methyl methanesulfonothioate, attached to the cysteine side chain, CC1(C)C=C(CS*)C(C)(C)N1[O]
# Biological target: FOXO4 forkhead domain (FHD; 95–195 a.a.) (human, UniProt P98177 95-195)
# Experiment: NMR paramagnetic relaxation enhancement
# Sequence of FOXO4 forkhead domain (FHD; 95–195 a.a.) (P98177 95-195): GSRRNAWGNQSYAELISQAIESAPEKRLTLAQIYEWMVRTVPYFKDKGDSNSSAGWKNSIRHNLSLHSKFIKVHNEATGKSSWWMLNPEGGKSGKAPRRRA
binder,measurement,value
"DLDLDMYMENLEC(MTSL)DMDNIISDLMDEGEGLDFNFEPDP (domain or fragment, human, UniProt P98177 469-505, looked up) [FOXO4 conserved region 3 (CR3; 469–505 a.a.), MTSL-labelled at C481]",binding result,binds
